Here are results for three molecules from US20210363269A1 (ALX ONCOLOGY, published 2021).

One assay has as its target T1, human SIRP-α v1 (human, UniProt P78324 31-149).
T1 construct: also called Human v1; Human V1
Description: SPR. Put shortly:
(§1)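 SIRP analytes at nominal, A280-based concentrations were injected in one-shot kinetic mode over purified antibodies that were amine-coupled to a GLC chip or captured by biotinylated Protein A on an NLC chip of a ProteOn XPR36. All runs were at 25° C in PBS pH 7.4 with 0.01% Tween-20. Apparent ka and kd came from a global simple Langmuir fit of double-referenced data, with KD as their ratio kd/ka.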

The target of the next assay is T2, human SIRP-α v2 (human).
T2 construct: also called Human v2; Human V2
The assay can be described thus: SPR KD. The gist of the method: as §1

Assay [1] deals with T3, human SIRPβ isoform 1 (human, UniProt O00241 30-148).
T3 construct: also called Beta; Human SIRPb
The assay can be described thus: SPR Koff +/-. Put shortly:
as §1

A further assay addresses T4, cynomolgus SIRP-α (cynomolgus monkey, UniProt Q5TFQ8 30-148 (human entry), limits assumed).
T4 construct: also called cyno1
T4 chain: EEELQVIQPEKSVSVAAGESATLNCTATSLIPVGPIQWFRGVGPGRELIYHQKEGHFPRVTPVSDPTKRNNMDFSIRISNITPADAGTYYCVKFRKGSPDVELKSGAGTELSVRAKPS
The assay can be described thus: SPR Koff +/-. Put shortly: as §1

For the next assay, the target named is T5, mouse 129 SIRP-α (mouse (129 strain), UniProt P97797 32-150).
T5 construct: also called m129
T5 chain: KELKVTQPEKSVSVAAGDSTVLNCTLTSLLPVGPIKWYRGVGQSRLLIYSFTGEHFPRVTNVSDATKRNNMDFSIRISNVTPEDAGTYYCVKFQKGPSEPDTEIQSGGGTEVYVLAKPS
Description: SPR Koff +/-. The gist of the method:
as §1

In assay [2] the target is T6, human SIRPγ isoform 1 (human, UniProt Q9P1W8 29-147).
T6 construct: also called Gamma; Human SIRPg
The assay can be described thus: SPR Koff +/-. The gist of the method: as §1

In assay [3] the target is T7, human SIRP-α v1 D1 domain (human, UniProt P78324 31-149).
T7 construct: also called human v1; human α v1
Description: SPR, ProteOn, antibody on chip.

Another assay concerns the target T8, human SIRPβ isoform 2 (human, UniProt Q5TFQ8 30-148).
T8 construct: also called Sirpb2; beta isoform 2
The assay can be described thus: SPR, ProteOn, antibody on chip.

The target of assay [4] is T9, human SIRPγ isoform 1 (human, UniProt Q9P1W8 29-147).
T9 construct: also called sirpg; sirp-g
Description: SPR, ProteOn, antibody on chip.

Assay [5] addresses T10, human SIRP-α v2 D1 domain (human).
T10 construct: also called human v2; human α v2
The assay can be described thus: SPR, ProteOn, antibody on chip. (In general: Surface plasmon resonance follows binding to a sensor surface in real time, without labels.)

The target in assay [6] is T11, cynomolgus SIRP-α D1 domain (SEQ ID NO:11) (cynomolgus, UniProt Q5TFQ8 30-148 (human entry), limits assumed).
T11 construct: also called cyno1
T11 chain: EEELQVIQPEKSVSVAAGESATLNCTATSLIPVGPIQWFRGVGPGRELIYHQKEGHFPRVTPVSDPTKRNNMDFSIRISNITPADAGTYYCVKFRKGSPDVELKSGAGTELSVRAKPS
Description: SPR, ProteOn, antibody on chip.

Assay [7] addresses T12, human SIRPβ isoform 1 (human, UniProt O00241 30-148).
T12 construct: also called sirpb1; Sirpb1
The assay can be described thus: SPR, ProteOn, antibody on chip.

The target of assay [8] is T7, human SIRP-α v1 D1 domain. Description: SPR, antibody immobilised on GLC chip. As to the method: (§2) All experiments were performed at 25° C. using a SPR-based ProteOn XPR36 biosensor (BioRad, Inc, Hercules, Calif.) equipped with GLC or NLC sensor chips. […] Purification was carried out by standard Protein A affinity column chromatography and eluted antibodies were stored in PBS buffer.
(§3) For the method using GLC chip, the analytes were injected and flowed over anti-SIRPα antibodies immobilized (˜1000 RUs) on GLC chips using Proteon™ Amine Coupling Kit. For the immobilization step, GLC chip was activated with EDAC/Sulpho-NHS 1:1 (Biorad) diluted 1/100 for 300 s at 25 μL/min. Anti-SIRPα antibodies were diluted to 80 nM concentration in 10 mM sodium acetate buffer pH 4.5 and immobilized to the chip at 30 μL/min for 50 s. Chip was inactivated with ethanolamine for 300 s at 25 μL/min. The analytes (e.g., SIRP-α from different species, SIRP-β, SIRP-γ) were injected in a “one-shot” kinetic mode at nominal concentrations of 100, 33, 11, 3.7, 1.2 and 0 nM. Association times were monitored for 90 s at 100 μL/min, and dissociation times were monitored for 1200 s. The surfaces were regenerated with a 2:1 v/v blend of Pierce IgG elution buffer/4M NaCl.

The target of assay [9] is T10, human SIRP-α v2 D1 domain. The assay can be described thus: SPR, antibody immobilised on GLC chip. As to the method:
as §2, §3

Assay [10] has as its target T11, cynomolgus SIRP-α D1 domain (SEQ ID …). Description: SPR, antibody immobilised on GLC chip. As to the method: as §2, §3

T2 sequence (chain, as listed by the source limits assumed): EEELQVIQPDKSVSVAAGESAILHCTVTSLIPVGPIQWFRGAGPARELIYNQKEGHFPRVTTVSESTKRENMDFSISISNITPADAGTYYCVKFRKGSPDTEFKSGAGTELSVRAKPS
T10 sequence (chain, as listed by the source limits assumed): as above
T1 sequence (P78324 31-149 limits assumed): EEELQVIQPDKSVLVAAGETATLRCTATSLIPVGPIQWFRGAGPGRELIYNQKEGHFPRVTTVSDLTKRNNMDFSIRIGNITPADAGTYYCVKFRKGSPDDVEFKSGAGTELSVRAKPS
T8 sequence (Q5TFQ8 30-148 limits assumed): as the sequence (P78324 31-149 limits assumed) above, with V13I, L14S, T20S, R24H, A27V, G79S, D101H counted along it

B1: antibody 194 (antibody, V domains shown)
VH: DVQLVESGGGVVRPGESLRLSCAASGFTFRNYGMSWVRQAPGEGLEWVSASSGSGSTYYADSVKGRFTISRDNSKNTLYLQMNSLRAEDTAIYYCAKVTWNNFFDYWGLGTLVTVSS
VL: EIVLAQSPDTLSVSPGERATLTCRASQDVAGKLAWYQQKPGQAPRLLIHATSSRADGIPARFSGSGSGTEFTLTITGLQSEDFAVYYCQQHYDWSPLTFGGGTKVEIK
notes: also called S194
By Kd is commonly meant a measure of binding affinity in units of concentration. For the molecule B1, the Kd with human SIRP-α v1 is 0.497 nM. Besides, the binding result with human SIRP-α v2 and with human SIRPβ isoform 1 [1] was “no binding” throughout.

B2: antibody 123 (antibody, V domains shown)
VH: VQLVESGGGLVQPGGSLRLSCTASGFTFRNYGMSWVRQAPGEGLEWVSASSGSGSTYYTDSVKGRFTISRDNSKNTLYLQMNSLRAEDTAIYYCAKVTWNNFFDYWGLGTLVTVSS
VL: EIVLTQSPGTLSVSPGERVTLTCRASQGIAGKIAWYQQKPGQAPRLLIYDASSRATGIPGRFSGSGSGTEFTLTITSLQSEDFAVYYCQQHYDWSPLTFGGGTKVEIK
notes: also called S123
As for B2, binding in the assay with human SIRP-α v1 was characterised by a dissociation constant (Kd) of 0.605 nM. For the same molecule, the binding result is given as “no binding” with human SIRP-α v2; “binds” in the assay with cynomolgus SIRP-α; “no binding” with mouse 129 SIRP-α; “no binding” with human SIRPβ isoform 1 [1]; “binds” in the assay with human SIRPγ isoform 1 [2].

B3: AB119a (antibody, human IgG1, V domains shown)
VH: DVQLLESGGGVVQPGGSLRLSCAASGFSFSNFAMTWVRQAPGEGLEWVSTIGSGDTYYADSVKGRFTISRDNSKNTLYLQMNSLRAEDTAVYYCAKDSTVSWSGDFFDYWGLGTLVTVSS
VL: EIVLTQSPATLSVSPGERATFSCRASQNVKNDLAWYQQRPGQAPRLLIYAARIRETGIPERFSGSGSGTEFTLTITSLQSEDFAVYYCQQYYDWPPFTFGGGTKVEIK
notes: Full-length human IgG1 with L234A, L235A, G237A and N297A; only variable domains tied to the clone
For the molecule B3, the equilibrium dissociation constant (Kd) in assay [3] was 0.198 nM; with human SIRPβ isoform 2, 0.376 nM; with human SIRPγ isoform 1 [4], 0.886 nM; in assay [5], 0.0799 nM; in assay [6] it was 0.145 nM; with human SIRPβ isoform 1 [7], 0.342 nM. In addition, the Kd was found to be 0.183 nM in assay [8], 0.0682 nM in assay [9] and 0.112 nM in assay [10].
